Results taken from the supplement of paper PMC9112550, “Optimization of the antimicrobial peptide Bac7 by deep mutational scanning” (BMC Biology, 2022).

System: Escherichia coli TOP10
Test: shrunken log2 fold change of peptide-encoding DNA abundance (4.5 h post-induction vs induction); higher = less antimicrobial activity (less host growth inhibition)
Settings: time post-induction: 4.5 h; library: site-saturation at positions 5, 18, 19, 20
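Note: peptides expressed intracellularly from a pBAD plasmid library in pooled LB shake-flask culture, induced with 0.3% L-arabinose, DNA abundance read by NGS, three biological replicates, DESeq2 with apeglm shrinkage.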

RRIRKRPPRLPRPRPRPYKWPRP
shrunken log2 fold change: 0.000411

RRIRKRPPRLPRPRPRPYLRPRP
shrunken log2 fold change: -0.0481

RRIRKRPPRLPRPRPRPYMGPRP
shrunken log2 fold change: -0.00674

RRIRKRPPRLPRPRPRPYMSPRP
shrunken log2 fold change: 0.0659

RRIRKRPPRLPRPRPRPYNAPRP
shrunken log2 fold change: -0.171

RRIRKRPPRLPRPRPRPYNCPRP
shrunken log2 fold change: 0.00529

RRIRKRPPRLPRPRPRPYNLPRP
shrunken log2 fold change: -0.119

RRIRKRPPRLPRPRPRPYNQPRP
shrunken log2 fold change: -0.312

RRIRKRPPRLPRPRPRPYQCPRP
shrunken log2 fold change: -0.0062

RRIRKRPPRLPRPRPRPYQDPRP
shrunken log2 fold change: 0.0178

RRIRKRPPRLPRPRPRPYQSPRP
shrunken log2 fold change: 0.000846

RRIRKRPPRLPRPRPRPYRHPRP
shrunken log2 fold change: -1.11

RRIRKRPPRLPRPRPRPYRMPRP
shrunken log2 fold change: -0.329

RRIRKRPPRLPRPRPRPYSDPRP
shrunken log2 fold change: 0.0075

RRIRKRPPRLPRPRPRPYSEPRP
shrunken log2 fold change: -0.269

RRIRKRPPRLPRPRPRPYSGPRP
shrunken log2 fold change: -0.839

RRIRKRPPRLPRPRPRPYSHPRP
shrunken log2 fold change: -0.134

RRIRKRPPRLPRPRPRPYVGPRP
shrunken log2 fold change: -0.0717

RRIRKRPPRLPRPRPRPYWKPRP
shrunken log2 fold change: 0.0282

RRIRKRPPRLPRPRPRPYWTPRP
shrunken log2 fold change: -0.26

RRIRKRPPRLPRPRPRPYYKPRP
shrunken log2 fold change: -0.445

RRIRKRPPRLPRPRPRPYYVPRP
shrunken log2 fold change: -0.197

RRIRLRPPRLPRPRPRPACMPRP
shrunken log2 fold change: 0.00459

RRIRLRPPRLPRPRPRPADCPRP
shrunken log2 fold change: 0.142

RRIRLRPPRLPRPRPRPADIPRP
shrunken log2 fold change: -0.00142

RRIRLRPPRLPRPRPRPAEHPRP
shrunken log2 fold change: 0.141

RRIRLRPPRLPRPRPRPAFTPRP
shrunken log2 fold change: 0.238

RRIRLRPPRLPRPRPRPAGGPRP
shrunken log2 fold change: 0.169

RRIRLRPPRLPRPRPRPAGIPRP
shrunken log2 fold change: -0.043

RRIRLRPPRLPRPRPRPAGYPRP
shrunken log2 fold change: -0.0817

RRIRLRPPRLPRPRPRPAHEPRP
shrunken log2 fold change: 0.408

RRIRLRPPRLPRPRPRPAHKPRP
shrunken log2 fold change: 0.384

RRIRLRPPRLPRPRPRPAIHPRP
shrunken log2 fold change: -0.192

RRIRLRPPRLPRPRPRPAKLPRP
shrunken log2 fold change: -0.0675

RRIRLRPPRLPRPRPRPALGPRP
shrunken log2 fold change: 0.935

RRIRLRPPRLPRPRPRPALTPRP
shrunken log2 fold change: 0.129

RRIRLRPPRLPRPRPRPANGPRP
shrunken log2 fold change: 0.115

RRIRLRPPRLPRPRPRPANPPRP
shrunken log2 fold change: -0.0638

RRIRLRPPRLPRPRPRPANQPRP
shrunken log2 fold change: 0.137

RRIRLRPPRLPRPRPRPAPIPRP
shrunken log2 fold change: 0.0892

RRIRLRPPRLPRPRPRPAQEPRP
shrunken log2 fold change: -0.023

RRIRLRPPRLPRPRPRPASVPRP
shrunken log2 fold change: -0.0571

RRIRLRPPRLPRPRPRPAWNPRP
shrunken log2 fold change: 0.133

RRIRLRPPRLPRPRPRPAYGPRP
shrunken log2 fold change: -0.0437

RRIRLRPPRLPRPRPRPCAHPRP
shrunken log2 fold change: -0.417

RRIRLRPPRLPRPRPRPCAKPRP
shrunken log2 fold change: 0.132

RRIRLRPPRLPRPRPRPCCEPRP
shrunken log2 fold change: 0.812

RRIRLRPPRLPRPRPRPCEDPRP
shrunken log2 fold change: 0.00976

RRIRLRPPRLPRPRPRPCERPRP
shrunken log2 fold change: -0.0471

RRIRLRPPRLPRPRPRPCGAPRP
shrunken log2 fold change: 0.356

RRIRLRPPRLPRPRPRPCGEPRP
shrunken log2 fold change: 0.122

RRIRLRPPRLPRPRPRPCGGPRP
shrunken log2 fold change: 0.091

RRIRLRPPRLPRPRPRPCHLPRP
shrunken log2 fold change: 0.0143

RRIRLRPPRLPRPRPRPCIPPRP
shrunken log2 fold change: -0.194

RRIRLRPPRLPRPRPRPCKTPRP
shrunken log2 fold change: 0.0231

RRIRLRPPRLPRPRPRPCKYPRP
shrunken log2 fold change: -0.0018

RRIRLRPPRLPRPRPRPCLHPRP
shrunken log2 fold change: -0.113

RRIRLRPPRLPRPRPRPCLNPRP
shrunken log2 fold change: -0.0428

RRIRLRPPRLPRPRPRPCMPPRP
shrunken log2 fold change: -0.579

RRIRLRPPRLPRPRPRPCPDPRP
shrunken log2 fold change: -0.136

RRIRLRPPRLPRPRPRPCQLPRP
shrunken log2 fold change: -0.8

RRIRLRPPRLPRPRPRPCRDPRP
shrunken log2 fold change: -0.211

RRIRLRPPRLPRPRPRPCREPRP
shrunken log2 fold change: 0.251

RRIRLRPPRLPRPRPRPCRVPRP
shrunken log2 fold change: -0.141

RRIRLRPPRLPRPRPRPCRYPRP
shrunken log2 fold change: -0.0582

RRIRLRPPRLPRPRPRPCYTPRP
shrunken log2 fold change: -0.525

RRIRLRPPRLPRPRPRPCYWPRP
shrunken log2 fold change: -0.317

RRIRLRPPRLPRPRPRPDAGPRP
shrunken log2 fold change: 0.0316

RRIRLRPPRLPRPRPRPDAQPRP
shrunken log2 fold change: 0.34

RRIRLRPPRLPRPRPRPDARPRP
shrunken log2 fold change: 0.0258

RRIRLRPPRLPRPRPRPDASPRP
shrunken log2 fold change: 0.101

RRIRLRPPRLPRPRPRPDCAPRP
shrunken log2 fold change: 0.239

RRIRLRPPRLPRPRPRPDCKPRP
shrunken log2 fold change: 0.0852

RRIRLRPPRLPRPRPRPDCMPRP
shrunken log2 fold change: -0.0708

RRIRLRPPRLPRPRPRPDCTPRP
shrunken log2 fold change: 0.0972
